From article PMC3942423 (Nature chemical biology, 2009) come the findings set out here.

In one data set the target is T1, Bt3990 (Bacteroides thetaiotaomicron, UniProt Q8A0N1).
T1 sequence (Q8A0N1 20-755): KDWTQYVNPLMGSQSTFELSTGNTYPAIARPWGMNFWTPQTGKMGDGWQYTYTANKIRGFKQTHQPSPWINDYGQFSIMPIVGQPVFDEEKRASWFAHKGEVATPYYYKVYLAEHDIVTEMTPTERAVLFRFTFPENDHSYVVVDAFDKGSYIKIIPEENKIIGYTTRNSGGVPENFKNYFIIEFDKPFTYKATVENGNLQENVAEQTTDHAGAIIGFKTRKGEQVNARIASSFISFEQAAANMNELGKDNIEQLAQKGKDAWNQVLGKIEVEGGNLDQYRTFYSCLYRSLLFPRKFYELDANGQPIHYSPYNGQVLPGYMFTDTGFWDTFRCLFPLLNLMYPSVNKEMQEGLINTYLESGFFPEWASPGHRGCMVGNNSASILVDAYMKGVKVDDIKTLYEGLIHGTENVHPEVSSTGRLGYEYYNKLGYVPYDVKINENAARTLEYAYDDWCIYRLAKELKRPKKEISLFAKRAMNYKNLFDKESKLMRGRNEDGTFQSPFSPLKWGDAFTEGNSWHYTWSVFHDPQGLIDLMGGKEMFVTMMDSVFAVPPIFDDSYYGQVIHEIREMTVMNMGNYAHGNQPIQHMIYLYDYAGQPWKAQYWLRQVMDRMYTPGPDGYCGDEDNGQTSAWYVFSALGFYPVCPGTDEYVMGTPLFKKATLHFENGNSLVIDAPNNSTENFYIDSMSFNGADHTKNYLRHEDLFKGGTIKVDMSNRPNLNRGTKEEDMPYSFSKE
As to the kind of experiment: inhibition studies. Type of data set: biochemical.

The next data set deals with GH92 enzymes. As to the kind of experiment: EDTA inactivation and metal reactivation. Type of data set: biochemical, Bacteroides thetaiotaomicron. As to conditions: all the GH92 enzymes analyzed.
A further data set has as its system Bt3990 E533A variant. As to the kind of experiment: kinetics of enzyme variant on DNP-Man. Type of data set: biochemical, Bacteroides thetaiotaomicron. The following applies: E533A variant of Bt3990, activated aryl mannoside.
A further data set deals with Bt3990 E585A (Bacteroides thetaiotaomicron, UniProt Q8A0N1, E585A). The experiment in a line: kinetics of enzyme variant. Type of data set: biochemical. The following applies: E585A of Bt3990, activated substrate.
Substrate in data set [1]: O=[N+]([O-])c1ccc(O[C@H]2O[C@H](CO)[C@@H](O)[C@H](O)[C@@H]2O)cc1
As to the kind of experiment: 4NP-Man hydrolysis kinetics. The format is biochemical, Bacteroides thetaiotaomicron. As to conditions: other: substrate 4NP-Man, enzyme Bt4093, pH 7.0.

Substrate in data set [2]: OC[C@H]1O[C@H](O[C@H]2[C@H](O)[C@H](O)[C@@H](O)O[C@@H]2CO)[C@@H](O)[C@@H](O)[C@@H]1O
The experiment in a line: mannobiose hydrolysis kinetics. Type of data set: biochemical, Bacteroides thetaiotaomicron. As to conditions: other: most active mannobiose substrate, enzyme Bt4093, pH 7.0.

As for `OC[C@@H]1[C@@H](O)[C@H](O)[C@H](O)c2nccn21` [mannoimidazole], at Bt3990, the Ki – broadly, a dissociation constant, usually derived from enzyme kinetics or from competition with a known ligand – was found to be 140 µM.
With `O=C(O)CN(CCN(CC(=O)O)CC(=O)O)CC(=O)O` [EDTA], the “effect on enzyme activity” value in the data set on GH92 enzymes was “inactivated”.
Take `[Ca+2]` [calcium]: in the data set with GH92 enzymes, the “recovery of activity after EDTA” value is recorded as “fully recovered”.
In the case of `O=[N+]([O-])c1ccc(O[C@H]2O[C@H](CO)[C@@H](O)[C@H](O)[C@@H]2O)c([N+](=O)[O-])c1` [DNP-Man], the “kcat/Km relative to the wild-type enzyme” value in the data set with Bt3990 E533A variant was determined as 370%. Moreover, the “change of kcat/Km” value at Bt3990 E585A is listed as “increased”.

B1: Bt4093 (Bacteroides thetaiotaomicron VPI-5482) (protein)
chain: GDYVHQVNTLIGTKGTGLTSGYLYPGATYPYGMVQFTPSYFSKRSGFVINQLSGGGCEHMGNFPTFPVKGKLKMSPDNILNYRINVSEEKGHAGYYEAMVQEDIKAKLTVTERTGMASYEYPADQQYGTIIIGGGISATPIEQAAIVITAPNKCEGYAEGGNFCGLRTPYKVYFVAEFDTDAFETGTWKREELMPNTTFAEGEYSGVYFTFDVNKKKNIQYKIGVSYVSVENARENLKAENAEWDFQKIQNQAEAKWNHYLGMIEVEGTNPDRTTQFYTHLYRSFIHPNVCSDVNGEYMGADFRVHKSRSKHYTSFSNWDTYRTQIQLLSMLDPEVASDIVISHQLFAEQSGGSFPRWVMANIETGVMQGDPTPILIANAYAFGARNYDPKPIFKIMRKGAEEPGSKSQDVETRPGLKQYLDKGYYNASIQLEYTSADFAIGQFALHAVGDEFASWRYFHFARSWKNLYNSDTGWLQSRNPDGSWKSLGEDFRESTYKNYFWMVPYDIAGLVEIIGGKEKAEKRLDEFFTRLDAGYNDAWFASGNEPSFHIPWIYNWIGRPYKTQEIINRVLNEQYSSKIDGLPGNDDLGTMGAWYVFACIGLYPEIPGVGGFTVNTPIFSSVKVHLKKGDIVIKGGSEKDIYIKSMKLNGKSYESTWIDWDQLNSGATIEYRTSGKPDMKWGAKVVPPSFP
On to B1, for which, in data set [1], the Km – broadly, the concentration of substrate that gives half-maximal velocity – came out at 1.3 ± 0.19 mM; the kcat – broadly, the number of substrate molecules converted per active site and unit of time at saturation – was 0.0112 ± 0.000817 s⁻¹; the kcat/Km (commonly the second-order rate constant that governs catalysis at low substrate concentration) came out at 9.08 M⁻¹ s⁻¹. Besides, in data set [2], the Km came to 35 ± 2.4 mM, the kcat came to 1.33 ± 0.065 s⁻¹ and the kcat/Km stood at 38.3 M⁻¹ s⁻¹.
